In patent publication US20240336663:

Columns and labels:
[1] = test system: ZFR11 (Zinc Finger 11-HP1a-KRAB) (synthetic); assay: cell_activity; conditions: N2A cells, transfection, qPCR; indirect (repression); text labels ZFR11 as SEQ 10 but the listing gives Zinc Finger 11-HP1a-KRAB as SEQ 11
[2] = test system: ZFR3 (Zinc Finger 3-HP1a-KRAB) (synthetic); assay: cell_activity; conditions: N2A cells, transfection, qPCR; indirect (repression); text labels ZFR3 as SEQ 11 but the listing gives Zinc Finger 3-HP1a-KRAB as SEQ 10
ZFR3 (Zinc Finger 3-HP1a-KRAB) (synthetic), sequence (chain, as listed by the source): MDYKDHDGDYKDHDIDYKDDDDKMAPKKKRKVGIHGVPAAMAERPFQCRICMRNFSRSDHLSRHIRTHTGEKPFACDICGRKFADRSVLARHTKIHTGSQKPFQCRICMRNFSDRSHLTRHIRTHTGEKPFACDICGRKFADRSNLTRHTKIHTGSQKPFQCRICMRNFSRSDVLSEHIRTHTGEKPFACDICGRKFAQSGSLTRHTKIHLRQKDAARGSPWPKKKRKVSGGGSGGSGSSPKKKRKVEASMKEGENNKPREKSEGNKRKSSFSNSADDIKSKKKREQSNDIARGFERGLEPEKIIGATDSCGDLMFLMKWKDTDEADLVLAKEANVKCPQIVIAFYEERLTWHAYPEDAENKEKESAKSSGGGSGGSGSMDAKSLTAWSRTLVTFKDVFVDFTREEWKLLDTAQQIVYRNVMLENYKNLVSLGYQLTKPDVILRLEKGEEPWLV

ZFR11 (Zinc Finger 11-HP1a-KRAB) (synthetic), sequence (chain, as listed by the source): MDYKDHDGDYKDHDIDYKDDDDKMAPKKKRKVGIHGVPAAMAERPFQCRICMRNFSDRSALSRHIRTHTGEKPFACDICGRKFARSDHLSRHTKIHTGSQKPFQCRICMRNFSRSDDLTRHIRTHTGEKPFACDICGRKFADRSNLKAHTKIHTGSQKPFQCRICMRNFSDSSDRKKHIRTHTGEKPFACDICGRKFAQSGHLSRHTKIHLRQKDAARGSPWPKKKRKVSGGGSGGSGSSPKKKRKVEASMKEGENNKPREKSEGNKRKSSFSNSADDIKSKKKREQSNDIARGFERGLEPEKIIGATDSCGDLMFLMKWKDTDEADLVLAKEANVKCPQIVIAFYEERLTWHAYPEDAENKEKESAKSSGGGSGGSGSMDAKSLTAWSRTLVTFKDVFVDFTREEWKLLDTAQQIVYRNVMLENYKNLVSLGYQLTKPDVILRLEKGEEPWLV

Substance “mouse Myd88 promoter target region (20 nt target of each ZF not individually printed)” has a relative Myd88 expression (fold Myd88 expression) [1] of 0.21 and a relative Myd88 expression (fold Myd88 expression) [2] of 0.22.
